Source: PMC8840716, “Functional Antagonism of WRI1 and TCP20 Modulates GH3.3 Expression to Maintain Auxin Homeostasis in Roots” (Plants, 2022)

Target: T1, GST-AtWRI1 (Arabidopsis, UniProt Q6X5Y6 1-430)
T1 construct: Arabidopsis WRINKLED1 (AtWRI1), AT3G54320, full-length, sub-cloned into pET41a-GST; also called WRINKLED1; GST agarose-coupled AtWRI1; source: E. coli BL21 (DE3), purified
T1 sequence (looked up): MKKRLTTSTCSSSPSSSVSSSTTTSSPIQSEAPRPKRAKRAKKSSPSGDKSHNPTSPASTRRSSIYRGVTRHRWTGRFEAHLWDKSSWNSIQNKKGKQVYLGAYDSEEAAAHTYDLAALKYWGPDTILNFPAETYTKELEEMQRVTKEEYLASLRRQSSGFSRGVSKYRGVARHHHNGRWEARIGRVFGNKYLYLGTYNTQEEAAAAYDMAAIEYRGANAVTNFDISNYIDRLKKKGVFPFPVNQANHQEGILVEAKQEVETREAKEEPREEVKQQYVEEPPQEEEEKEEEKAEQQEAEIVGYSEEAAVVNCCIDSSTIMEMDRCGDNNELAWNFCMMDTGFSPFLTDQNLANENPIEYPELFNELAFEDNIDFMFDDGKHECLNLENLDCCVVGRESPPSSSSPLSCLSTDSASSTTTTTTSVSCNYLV
Assay: pull-down; purified His-TCP20 incubated with GST beads coupled with purified GST-AtWRI1; 20 mM Tris-HCl pH 7.4, 150 mM NaCl, 1 mM DTT, 0.1 mM EDTA, 0.1% IGEPAL CA-630, 4 °C overnight, 5 washes; immunoblot with anti-His antibody
Conditions: both partners purified

binding result: binds
B1: His-TCP20 (natural protein)
chain: not shown
notes: Arabidopsis TCP20, AT3G27010, full-length, sub-cloned into pET41a-6xHis; also called His-tagged TCP20; source: E. coli BL21 (DE3), purified
